Results taken from the supplement of paper PMC9876800.

Tested on: peptide library, one residue held at a place counted from the S/T acceptor
Test: relative phosphorylation of the sub-library (ratio to the mean residue at this position); higher = residue favoured
Settings: human
How it was run: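 Purified recombinant kinases (human or orthologue constructs) were incubated in 384-well plates with biotinylated degenerate peptide sub-libraries, each fixing one residue at one position around a central Ser/Thr. Peptides were at 50 μM, with 50 μM ATP spiked with γ-32P-ATP, for 90 min under kinase-specific conditions. Spots on streptavidin membranes were phosphorimaged and quantified by densitometry. Relative sub-library phosphorylation is a ratio to the mean residue at that position.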

Chain of LATS1, construct: aa589-end (O95835 589-1130, looked up): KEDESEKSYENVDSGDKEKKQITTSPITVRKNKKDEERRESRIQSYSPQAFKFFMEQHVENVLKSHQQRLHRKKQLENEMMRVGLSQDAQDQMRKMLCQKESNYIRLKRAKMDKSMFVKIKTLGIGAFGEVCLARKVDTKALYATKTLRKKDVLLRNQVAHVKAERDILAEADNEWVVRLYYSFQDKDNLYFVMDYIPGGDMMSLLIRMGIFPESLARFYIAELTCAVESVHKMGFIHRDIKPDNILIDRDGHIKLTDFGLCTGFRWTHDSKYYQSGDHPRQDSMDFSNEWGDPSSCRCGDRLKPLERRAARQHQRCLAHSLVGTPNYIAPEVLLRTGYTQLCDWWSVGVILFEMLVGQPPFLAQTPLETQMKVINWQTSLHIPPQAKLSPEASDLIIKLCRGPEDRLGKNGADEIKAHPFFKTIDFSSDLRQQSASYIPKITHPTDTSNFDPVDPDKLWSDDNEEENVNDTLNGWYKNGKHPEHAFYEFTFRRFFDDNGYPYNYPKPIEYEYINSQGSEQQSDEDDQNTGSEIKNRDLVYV
Chain of GRK6, construct: Full length (P43250 whole entry, looked up): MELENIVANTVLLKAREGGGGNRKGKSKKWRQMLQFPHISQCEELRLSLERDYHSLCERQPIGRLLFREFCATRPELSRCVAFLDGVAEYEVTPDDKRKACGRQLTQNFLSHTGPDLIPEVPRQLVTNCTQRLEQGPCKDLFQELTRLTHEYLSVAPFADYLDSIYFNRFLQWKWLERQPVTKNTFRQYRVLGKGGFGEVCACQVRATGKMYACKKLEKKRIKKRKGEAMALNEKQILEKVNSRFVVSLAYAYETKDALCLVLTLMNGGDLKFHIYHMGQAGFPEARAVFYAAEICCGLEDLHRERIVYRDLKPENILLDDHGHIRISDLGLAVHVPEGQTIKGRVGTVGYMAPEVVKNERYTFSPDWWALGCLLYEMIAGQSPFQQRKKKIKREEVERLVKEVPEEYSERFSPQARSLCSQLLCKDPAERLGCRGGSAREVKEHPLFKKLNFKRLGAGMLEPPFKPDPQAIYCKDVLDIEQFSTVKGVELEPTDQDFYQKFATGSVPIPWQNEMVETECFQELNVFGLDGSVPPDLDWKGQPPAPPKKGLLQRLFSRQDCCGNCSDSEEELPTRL
Chain of PDK4, construct: Full length (Q16654 whole entry, looked up): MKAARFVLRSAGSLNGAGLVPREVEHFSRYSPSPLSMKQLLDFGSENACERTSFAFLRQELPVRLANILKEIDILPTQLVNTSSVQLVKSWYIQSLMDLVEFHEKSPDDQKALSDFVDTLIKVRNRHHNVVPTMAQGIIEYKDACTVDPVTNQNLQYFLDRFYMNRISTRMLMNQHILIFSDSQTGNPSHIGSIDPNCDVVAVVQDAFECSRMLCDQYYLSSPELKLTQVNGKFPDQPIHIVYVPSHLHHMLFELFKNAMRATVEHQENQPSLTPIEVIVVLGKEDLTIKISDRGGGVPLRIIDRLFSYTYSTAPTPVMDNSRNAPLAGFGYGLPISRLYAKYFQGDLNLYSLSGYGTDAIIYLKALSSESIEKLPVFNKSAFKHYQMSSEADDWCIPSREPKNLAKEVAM

PDK4, construct: Full length (from UniProt Q16654)
relative phosphorylation
Settings | at +1 | at +2 | at +3 | at +4 | at -1 | at -2 | at -3 | at -4 | at -5
A fixed | 0.674 | 0.87 | 1.15 | 0.987 | 1.05 | 0.953 | 0.939 | 0.873 | 1.06
D fixed | 0.79 | 1.21 | 1.1 | 1.16 | 1.09 | 0.775 | 0.841 | 0.861 | 0.995
E fixed | 0.679 | 1.64 | 1.06 | 0.972 | 0.718 | 0.715 | 0.788 | 0.818 | 0.876
F fixed | 1.34 | 0.962 | 1.52 | 1.07 | 1.21 | 1.03 | 1.65 | 1.53 | 1.25
G fixed | 0.705 | 1.22 | 1.05 | 1.06 | 1.29 | 1.22 | 1.02 | 0.992 | 1.03
H fixed | 0.838 | 0.883 | 1.09 | 0.947 | 1.02 | 1.23 | 1.11 | 0.983 | 0.996
I fixed | 1.2 | 0.742 | 1.03 | 0.802 | 0.778 | 0.776 | 0.912 | 0.897 | 0.99
K fixed | 0.692 | 0.745 | 0.622 | 0.834 | 0.847 | 0.889 | 0.827 | 0.86 | 0.88
L fixed | 1.74 | 0.951 | 0.993 | 0.98 | 0.947 | 0.97 | 0.961 | 0.905 | 1.05
M fixed | 1.48 | 1.06 | 1.23 | 1.02 | 1.15 | 1.08 | 1.07 | 1.04 | 1.29
N fixed | 0.732 | 1.05 | 0.898 | 1.36 | 1.1 | 0.883 | 0.906 | 0.964 | 1.15
P fixed | 0.825 | 0.823 | 0.93 | 1.01 | 0.874 | 1.09 | 0.973 | 0.878 | 0.723
Q fixed | 0.862 | 1.09 | 0.818 | 0.959 | 0.89 | 0.964 | 0.912 | 0.95 | 0.791
R fixed | 0.853 | 0.939 | 0.729 | 0.968 | 1.03 | 1.02 | 0.913 | 0.962 | 0.869
V fixed | 0.972 | 0.791 | 0.771 | 0.828 | 0.783 | 0.864 | 0.831 | 0.827 | 0.825
W fixed | 1.61 | 1.03 | 1.01 | 1.04 | 1.22 | 1.55 | 1.35 | 1.66 | 1.21
Y fixed | 1.34 | 0.962 | 1.52 | 1.07 | 1.21 | 1.03 | 1.65 | 1.53 | 1.25
pThr fixed | 0.849 | 1.01 | 1.27 | 1.36 | 0.587 | 0.794 | 0.865 | 0.973 | 1.09
pTyr fixed | 0.895 | 1.19 | 0.99 | 1 | 0.7 | 0.943 | 1.31 | 1.83 | 1.07

MAP3K20, construct: Full length (from UniProt Q9NYL2)
relative phosphorylation
Settings | at +1 | at +2 | at +3 | at +4 | at -1 | at -2 | at -3 | at -4 | at -5
A fixed | 0.455 | 0.721 | 0.832 | 0.953 | 0.78 | 0.903 | 1.01 | 0.913 | 1.12
D fixed | 0.247 | 0.439 | 0.477 | 0.582 | 1.46 | 1.01 | 0.926 | 1.29 | 1
E fixed | 0.359 | 0.359 | 0.543 | 0.629 | 0.797 | 0.946 | 1.13 | 1.14 | 0.884
F fixed | 1.58 | 0.694 | 1.11 | 0.722 | 0.853 | 1.03 | 0.835 | 0.894 | 0.925
G fixed | 0.282 | 0.564 | 0.99 | 1.06 | 1.22 | 1.45 | 1.18 | 1.16 | 1.09
H fixed | 1.07 | 2.45 | 1.13 | 1.14 | 1.79 | 1.61 | 1.2 | 1.13 | 1.1
I fixed | 2.51 | 0.692 | 1.08 | 0.729 | 0.394 | 0.631 | 0.772 | 0.72 | 0.733
K fixed | 0.486 | 1.57 | 1.45 | 2.05 | 1.01 | 0.509 | 0.819 | 1.08 | 1.39
L fixed | 1.3 | 0.646 | 1.07 | 0.672 | 0.679 | 0.858 | 0.952 | 0.736 | 0.812
M fixed | 0.981 | 0.758 | 0.972 | 0.818 | 1.13 | 0.812 | 0.915 | 0.849 | 0.822
N fixed | 0.473 | 0.996 | 0.822 | 0.946 | 1.63 | 1.12 | 1.28 | 1.19 | 1.11
P fixed | 0.261 | 0.41 | 0.771 | 1.16 | 0.632 | 0.693 | 1.23 | 1.07 | 1.03
Q fixed | 0.629 | 0.894 | 0.896 | 1.04 | 1.08 | 0.977 | 0.892 | 0.932 | 0.914
R fixed | 0.557 | 2.15 | 1.42 | 1.72 | 1.12 | 0.662 | 1.01 | 1.11 | 1.14
V fixed | 2.5 | 0.779 | 0.984 | 0.69 | 0.461 | 0.647 | 0.841 | 0.76 | 0.772
W fixed | 1.27 | 1.08 | 1.25 | 1.19 | 0.778 | 2.07 | 1.11 | 1.07 | 1.14
Y fixed | 2.03 | 1.8 | 1.21 | 0.895 | 1.18 | 1.07 | 0.909 | 0.959 | 1.01
pThr fixed | 0.837 | 0.564 | 0.781 | 0.663 | 0.615 | 1.09 | 1.34 | 1.2 | 1.22
pTyr fixed | 0.662 | 0.528 | 0.72 | 0.694 | 0.997 | 0.935 | 1.06 | 0.797 | 1.04

GRK6, construct: Full length (from UniProt P43250)
relative phosphorylation
Settings | at +1 | at +2 | at +3 | at +4 | at -1 | at -2 | at -3 | at -4 | at -5
A fixed | 0.673 | 1.15 | 0.704 | 0.819 | 0.727 | 0.898 | 0.871 | 1.07 | 1.01
D fixed | 1.13 | 1.55 | 2.51 | 2.04 | 1.42 | 0.993 | 1.73 | 1.37 | 1.41
E fixed | 2.44 | 1.11 | 3.21 | 1.96 | 1.35 | 1.02 | 1.66 | 1.44 | 1.31
F fixed | 1.1 | 0.983 | 0.866 | 0.826 | 0.903 | 1.19 | 0.803 | 0.781 | 1.03
G fixed | 0.61 | 0.867 | 0.716 | 0.91 | 0.601 | 0.761 | 0.793 | 0.935 | 0.932
H fixed | 0.721 | 0.978 | 0.758 | 0.914 | 1.35 | 0.895 | 0.92 | 1.01 | 0.988
I fixed | 1.44 | 1.17 | 0.665 | 0.78 | 0.817 | 0.848 | 0.778 | 0.951 | 1.06
K fixed | 0.654 | 0.7 | 0.59 | 0.796 | 0.854 | 0.878 | 0.806 | 0.955 | 0.873
L fixed | 1.11 | 0.765 | 0.695 | 0.764 | 1.1 | 1.88 | 0.914 | 0.98 | 0.879
M fixed | 1.25 | 0.954 | 0.78 | 0.946 | 0.948 | 1.09 | 0.852 | 0.953 | 0.882
N fixed | 0.771 | 0.893 | 0.726 | 0.864 | 1.29 | 1.02 | 1.08 | 1.03 | 0.988
P fixed | 0.36 | 0.512 | 0.631 | 1.16 | 0.692 | 0.599 | 0.716 | 0.88 | 0.864
Q fixed | 1.03 | 0.763 | 0.653 | 0.852 | 0.82 | 0.87 | 0.899 | 0.887 | 0.775
R fixed | 0.736 | 0.811 | 0.696 | 0.626 | 0.942 | 1.2 | 1.59 | 1 | 0.928
V fixed | 1.24 | 1.43 | 0.821 | 0.763 | 0.947 | 0.766 | 0.713 | 0.844 | 1.06
W fixed | 0.794 | 1.16 | 0.991 | 1.12 | 0.745 | 1.23 | 0.937 | 0.997 | 1.01
Y fixed | 0.944 | 1.19 | 0.985 | 0.858 | 1.5 | 0.863 | 0.93 | 0.922 | 0.999
pThr fixed | 2.88 | 1.34 | 1.58 | 3.36 | 0.96 | 1.16 | 2.9 | 1.6 | 1.52
pTyr fixed | 3.28 | 1.43 | 1.67 | 2.06 | 1.5 | 1.51 | 1.82 | 1.82 | 1.7

LATS1, construct: aa589-end (from UniProt O95835)
relative phosphorylation
Settings | at +1 | at +2 | at +3 | at +4 | at -1 | at -2 | at -3 | at -4 | at -5
A fixed | 0.659 | 0.785 | 0.976 | 0.856 | 0.615 | 0.872 | 0.639 | 1.08 | 0.8
D fixed | 1.01 | 1.11 | 1.46 | 1.45 | 1.88 | 1.91 | 1.24 | 0.946 | 1.01
E fixed | 1.3 | 2.1 | 1.28 | 1.52 | 0.865 | 1.3 | 0.564 | 0.822 | 0.706
F fixed | 0.776 | 0.66 | 0.867 | 0.785 | 0.27 | 0.756 | 0.375 | 0.839 | 0.611
G fixed | 0.751 | 0.85 | 1.17 | 1.34 | 1.3 | 0.893 | 0.853 | 1.04 | 1.09
H fixed | 0.946 | 1.2 | 1.03 | 1.22 | 0.891 | 0.974 | 1.2 | 1.6 | 4.19
I fixed | 0.957 | 1.34 | 0.784 | 0.743 | 0.21 | 0.298 | 0.257 | 0.481 | 0.476
K fixed | 1.23 | 0.623 | 1.27 | 0.844 | 2.38 | 1.36 | 1.78 | 1.15 | 0.971
L fixed | 1.46 | 1.29 | 0.961 | 0.707 | 0.438 | 0.373 | 0.312 | 0.62 | 0.52
M fixed | 1.8 | 0.941 | 0.791 | 0.994 | 0.667 | 0.692 | 0.427 | 0.8 | 0.74
N fixed | 0.907 | 1.12 | 0.955 | 1.26 | 1.2 | 1.08 | 0.765 | 0.939 | 0.868
P fixed | 0.648 | 0.816 | 1.08 | 0.982 | 3.01 | 0.99 | 2.34 | 1.42 | 0.834
Q fixed | 0.91 | 0.846 | 0.941 | 0.924 | 1.02 | 1.41 | 0.705 | 1.02 | 0.718
R fixed | 0.683 | 1.21 | 0.645 | 0.755 | 0.915 | 1.79 | 3.7 | 1.19 | 1.15
V fixed | 0.797 | 0.771 | 0.902 | 0.647 | 0.294 | 0.359 | 0.326 | 0.61 | 0.613
W fixed | 1.26 | 0.585 | 1.06 | 0.907 | 0.436 | 0.969 | 0.708 | 1.5 | 0.842
Y fixed | 0.9 | 0.754 | 0.827 | 1.07 | 0.604 | 0.978 | 0.824 | 0.931 | 0.863
pThr fixed | 1.2 | 1.09 | 1.2 | 2.38 | 0.769 | 0.586 | 0.536 | 0.599 | 0.598
pTyr fixed | 0.854 | 0.716 | 0.789 | 1.15 | 0.411 | 0.431 | 0.542 | 0.578 | 0.613
